Data reported in PMC6282620, “Structural and biochemical characterization of Plasmodium falciparum Hsp70‐x reveals functional versatility of its C‐terminal EEVN motif” (Proteins, 2018).

molecular target: Plasmodium falciparum Hsp70-x (full length) (Plasmodium falciparum); assay: SPR; PfHsp70-x or PfHsp70-xT immobilised on ProteOn GLC chips as ligands; peptides as analytes at 1.25-20 nM, 50 uL/min; 25 °C; PBS-Tween; with 2 mM ADP

Binder | koff [s⁻¹] | kon [M⁻¹ s⁻¹]
ALLLMYRR [peptide ALLLMYRR] | 0.00282 | 
NRNNTG [peptide NRNNTG] | 1.03e-07 | 2.55
NRLLTG [peptide NRLLTG] | 1.01e-05 | 1.62
ANNNMYRR [peptide ANNNMYRR] | 0.00386 | 1.74e+06

molecular target: PfHsp70-x C-terminal truncated version with a missing EEVN motif (Plasmodium falciparum); assay: as above

Binder | koff [s⁻¹] | kon [M⁻¹ s⁻¹]
ALLLMYRR [peptide ALLLMYRR] | 1.04e-05 | 
NRNNTG [peptide NRNNTG] | 1.01e-08 | 5.96
NRLLTG [peptide NRLLTG] | 1e-05 | 6
ANNNMYRR [peptide ANNNMYRR] | 1.04e-05 | 

molecular target: Plasmodium falciparum Hsp70‐x (full length) (Plasmodium falciparum); assay: SPR; PfHsp70‐x or PfHsp70‐xT immobilised on ProteOn GLC chips, peptides as analytes at 1.25-20 nM, 25°C, PBS‐Tween pH 7.4, no nucleotide

Binder | Kd [nM]
ALLLMYRR [peptide ALLLMYRR] | 1470
NRNNTG [peptide NRNNTG] | 6.91
NRLLTG [peptide NRLLTG] | 250
ANNNMYRR [peptide ANNNMYRR] | 2.21

molecular target: PfHsp70‐x C‐terminal truncated version with a missing EEVN motif (Plasmodium falciparum); assay: as above

Binder | Kd [nM]
ALLLMYRR [peptide ALLLMYRR] | 542000
NRNNTG [peptide NRNNTG] | 7.92
NRLLTG [peptide NRLLTG] | 280
ANNNMYRR [peptide ANNNMYRR] | 626000

molecular target: Plasmodium falciparum Hsp70-x (full length) (Plasmodium falciparum); assay: SPR; PfHsp70-x or PfHsp70-xT immobilised on ProteOn GLC chips as ligands; peptides as analytes at 1.25-20 nM, 50 uL/min; 25 °C; PBS-Tween; no nucleotide

Binder | koff [s⁻¹] | kon [M⁻¹ s⁻¹]
ALLLMYRR [peptide ALLLMYRR] | 1.28e-06 | 
NRNNTG [peptide NRNNTG] | 9.49e-07 | 2.43
NRLLTG [peptide NRLLTG] | 9.97e-06 | 3.86
ANNNMYRR [peptide ANNNMYRR] | 0.000732 | 331000

molecular target: PfHsp70-x C-terminal truncated version with a missing EEVN motif (Plasmodium falciparum); assay: as above

Binder | koff [s⁻¹] | kon [M⁻¹ s⁻¹]
ALLLMYRR [peptide ALLLMYRR] | 1.04e-05 | 
NRNNTG [peptide NRNNTG] | 2.79e-08 | 3.52
NRLLTG [peptide NRLLTG] | 8.67e-06 | 3.15
ANNNMYRR [peptide ANNNMYRR] | 1.04e-05 | 

molecular target: Plasmodium falciparum Hsp70‐x (full length) (Plasmodium falciparum); assay: SPR; PfHsp70‐x or PfHsp70‐xT immobilised on ProteOn GLC chips, peptides as analytes at 1.25-20 nM, 25°C, PBS‐Tween pH 7.4, with 2 mM ADP

Binder | Kd [nM]
ALLLMYRR [peptide ALLLMYRR] | 2820
NRNNTG [peptide NRNNTG] | 4.31
NRLLTG [peptide NRLLTG] | 620
ANNNMYRR [peptide ANNNMYRR] | 2.21

molecular target: PfHsp70‐x C‐terminal truncated version with a missing EEVN motif (Plasmodium falciparum); assay: as above

Binder | Kd [nM]
ALLLMYRR [peptide ALLLMYRR] | 313000
NRNNTG [peptide NRNNTG] | 1.69
NRLLTG [peptide NRLLTG] | 170
ANNNMYRR [peptide ANNNMYRR] | 443000

molecular target: Plasmodium falciparum Hsp70-x (full length) (Plasmodium falciparum); assay: SPR; PfHsp70-x or PfHsp70-xT immobilised on ProteOn GLC chips as ligands; peptides as analytes at 1.25-20 nM, 50 uL/min; 25 °C; PBS-Tween; with 2 mM ATP

Binder | koff [s⁻¹] | kon [M⁻¹ s⁻¹]
ALLLMYRR [peptide ALLLMYRR] | 1.6e-06 | 
NRNNTG [peptide NRNNTG] | 1.01e-06 | 7.33
NRLLTG [peptide NRLLTG] | 1.01e-05 | 1.21
ANNNMYRR [peptide ANNNMYRR] | 0.00567 | 7240

molecular target: PfHsp70-x C-terminal truncated version with a missing EEVN motif (Plasmodium falciparum); assay: as above

Binder | koff [s⁻¹] | kon [M⁻¹ s⁻¹]
NRNNTG [peptide NRNNTG] | 1.01e-05 | 9.37
NRLLTG [peptide NRLLTG] | 0.000161 | 31.8

molecular target: Plasmodium falciparum Hsp70‐x (full length) (Plasmodium falciparum); assay: SPR; PfHsp70‐x or PfHsp70‐xT immobilised on ProteOn GLC chips, peptides as analytes at 1.25-20 nM, 25°C, PBS‐Tween pH 7.4, with 2 mM ATP

Binder | Kd [nM]
ALLLMYRR [peptide ALLLMYRR] | 60600
NRNNTG [peptide NRNNTG] | 137
NRLLTG [peptide NRLLTG] | 1700
ANNNMYRR [peptide ANNNMYRR] | 783

molecular target: PfHsp70‐x C‐terminal truncated version with a missing EEVN motif (Plasmodium falciparum); assay: as above

Binder | Kd [nM]
NRNNTG [peptide NRNNTG] | 107
NRLLTG [peptide NRLLTG] | 1800
